Data as given in US8809529B2, “Imidazo[1,2-α]pyrazine derivatives” (Promega Corporation, priority 2010, dated 2014).

B1: 9B8: IV variant with Q18L, F68Y, L72Q, M75K; in Tables 12, 22, 23, 26, 27 “9B8” stands for 9B8 opt (protein)
chain: MVFTLEDFVGDWRQTAGYNLDQVLEQGGLSSLFQKLGVSVTPIQKIVLSGENGLKIDIHVIIPYEGLSGYQMGQIEKIFKVVYPVDDHHFKVILHYGTLVIDGVTPNMIDYFGRPYEGIAVFDGKKITVTGTLWNGNKIIDERLINPDGSLLFRVTINGVTGWRLCERILA
B2: 9B8 opt: codon optimized version of the 9B8 variant (protein)
chain: MVFTLEDFVGDWRQTAGYNLDQVLEQGGLSSLFQKLGVSVTPIQKIVLSGENGLKIDIHVIIPYEGLSGYQMGQIEKIFKVVYPVDDHHFKVILHYGTLVIDGVTPNMIDYFGRPYEGIAVFDGKKITVTGTLWNGNKIIDERLINPDGSLLFRVTINGVTGWRLCERILA

How the values were obtained:
HEK293 cells = assay: Stability of 9B8 and V2 in HEK293 cells; assay type: cell-based, human; settings: HEK293 cells lysed in assay reagent, 20 μM PBI-3939
Procedure: The variants 9B8 and V2 (9B8+K33N+T39T+K43R+Y68D) were also screened in HEK293 cells to determine their stability. The variants were cloned into pF4Ag and transfected into HEK293 cells (15,000 cells/well) as previously described. After transfection, the cells were lysed in assay reagent (as previously described; no PBI-3939), and luminescence measured using the assay reagent with 20 μM PBI-3939. […] This is consistent with the half-life seen for these variants in E. coli (Table 26).

[1] = system: antioxidant response element (ARE); assay: ARE transcriptional reporter, reverse transfection, HEK293 cells; assay type: cell-based, human; settings: 24 h, 100 ng DNA
[2] = system: cAMP response element (CRE); assay: CRE transcriptional reporter, forward transfection, HEK293 cells; assay type: cell-based, human; set-up: Response: scale not given here; settings: for baseline: 10 nM FSK; for baseline / RLU (10 μM FSK): 3 h
Procedure: HEK293 cells were plated at 15,000 cells/well in six 96-well tissue culture plates. Cells were grown in 100 μL of DMEM+10% FBS+1× non-essential amino acids (NEAA) and incubated overnight at 37° C. The cells were transiently transfected with either 10 ng or 100 ng plasmid DNA/well of pGL4.29 9B8 opt, pGL4.29 9B8 opt-P, or pGL4.29. Plasmid DNA was mixed with 850 μL of OPTI-MEM® (Invitrogen) and 32.4 μL of FUGENE® HD transfection reagent (Promega Corp.) and incubated at room temperature for 10 min. Eight μL of the transfection/reporter DNA mixture was added to the appropriate wells (2 constructs/plate). Cells were incubated for 4 hrs at 37° C. The medium was replaced with OPTI-MEM®+0.5% dialyzed FBS+1×NEAA+1× sodium pyruvate+1× Penn-Strep and incubated overnight at 37° C.
A lytic reagent containing 100 mM MES pH 6.1, 1 mM CDTA, 150 mM KCl, 35 mM thiourea, 2 mM DTT, 0.25% TERGITOL® NP-9 (v/v), 0.025% MAZU® DF 204, and 20 μM PBI-3939 was added to the cells containing pGL4.29 9B8 opt or pGL4.29 9B8 opt-P and allowed to incubated for 10 min at room temperature (100 μL lytic reagent added to 100 μL cells). ONE-GLO™ assay reagent (Promega Corp.) was added to cells containing pGL4.29 and used according to the manufacturer's protocol (100 μL reagent added to 100 μL cells). Luminescence was measured on a GLOMAX® Luminometer.

[3] = Brightness of purified OgLuc variant compared to firefly luciferase; assay type: biochemical
Procedure: The 9B8 OgLuc variant was overexpressed and purified as described in Example 33. Reactions between diluted enzyme and substrate were performed using the following 2× buffer/assay reagent: 100 mM MES pH 6.0, 1 mM CDTA, 150 mM KCl, 35 mM thiourea, 2 mM DTT, 0.25% TERGITOL® NP-9 (v/v), 0.025% MAZU® DF 204, 10 mg/mL […], and 20 μM PBI-3939. The final assay concentrations of purified enzyme and substrate were 0.5 pM and […], respectively. In parallel, reactions between diluted purified firefly luciferase (i.e., QUANTILUM® Recombinant Luciferase (Promega Corp.)) and luciferin were analyzed. The assay buffer/reagent for the firefly luciferase reaction was BRIGHT-GLO™, and the final assay concentrations were 0.5 pM enzyme and 500 μM luciferin. As the buffers/reagents for each reaction were known to provide “glow” kinetics, a 15 min time point was used to collect luminescence data.

CRE = CRE transcriptional reporter, bulk transfection, NIH3T3 cells; assay type: cell-based
Procedure: The transcriptional reporter containing […] and 9B8 opt-P was used in the bulk transfection of HeLa cells
HEK293, NIH3T3, or HeLa cells were plated to a single well of a 6-well tissue culture plate the day before transfection at a density of 4.5×10^5 cells/well in 3 mL complete medium (DMEM+10% FBS+1×NEAA+1× sodium pyruvate) for HEK293 cells, 3×10^5 cellsNvell in 3 mL complete medium (DMEM+10% fetal calf serum (FCS)+1×NEAA+1× sodium pyruvate) for NIH3T3 cells, or 9.9×10^5 cells/well in 3 mL complete medium (DMEM+10% FBS+1×NEAA) for HeLa cells. Cells were grown overnight at 37° C.
3,300 ng of reporter plasmid DNA in 155 4 OPTI-MEM® was mixed with 9.9 μL FUGENE® HD transfection reagent, vortexed briefly, and incubated at room temperature for 10 min. The CRE transcriptional reporters were used to transfect HEK293 and NIH3T3 cells. The HRE transcriptional reporters were used to transfect HeLa cells. The reporter mixture was added to cells and mixed by gentle rocking followed by incubation at 37° C. for 6 hrs (HEK293 and NIH3T3) or 3 hrs (HeLa). Cells were then trypsinized and resuspended in medium (DMEM+10% FBS+1×NEAA+1× sodium pyruvate for HEK293 cells, DMEM+10% FCS+1×NEAA+1× sodium pyruvate for NIH3T3 cells, or DMEM+10% FBS+1×NEAA for HeLa cells), followed by plating to the individual wells of a 96-well plate (20,000 cells/100 μL for HEK293, 10,000 cells/100 4 for NIH3T3, or […] for HeLa) and incubated at 37° C. overnight.
FSK (CRE stimulator) or 17-AAG (HRE stimulator; 17-Allylamino-demethoxy geldanamycin) in OPTI-MEM® was added to the cells (10 nM or 10 μM final concentration for FSK; 1 nM or 1 μM final concentration for 17-AAG) and incubated at 37° C. for 4 hrs (FSK) or 6 hrs (17-AAG). Plates were removed from the incubator and allowed to equilibrate to room temperature for 25 min. Cells were lysed with 100 μL lytic reagent as described above for the forward transfection. Luminescence was measured on a GLOMAX® Luminometer.

Molecule	half-life (HEK293 cells) [h]	RLU (20 μM sulphoraphane) [1]	RLU (20 μM tBHQ) [1]	Response ([2]; 10 ng DNA for transfection)	baseline ([2]; 10 ng DNA for transfection)	RLU (10 μM FSK) ([2]; 10 ng DNA for transfection)	Response ([2]; 100 ng DNA for transfection)	baseline ([2]; 100 ng DNA for transfection)	RLU (10 μM FSK) ([2]; 100 ng DNA for transfection)	brightness relative to QUANTILUM Recombinant Luciferase with BRIGHT-GLO [3]	luminescence ([3]; 0.5 pM enzyme, 15 min, 9B8 opt with PBI-3939, QUANTILUM with BRIGHT-GLO)	baseline (CRE; NIH3T3, 10 nM FSK, 4 h)	RLU (10 mM FSK) (CRE; NIH3T3, 4 h)	Response (CRE; NIH3T3, FSK)
B1	5.2	–	–	–	–	–	–	–	–	–	–	–	–	–
B2	–	89,600,000 RLU	120,000,000 RLU	67	192810	12,926,465 RLU	34	3,078,418	104,687,723 RLU	approximately 8 fold	19,200 RLU	9,187,000	23,600,000 RLU	2.6
